Data: the supplement of paper PMC9170038

System: MS2 coat protein
Assay: apparent KD of MS2 coat protein; designed switch direction (-1 OFF switch, 1 ON switch): -1; higher = weaker reporter binding
How it was run: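 Each step of the titration lasted 0.8–1.5 h at the lowest concentration and 10–20 min at the highest. The protein, SNAP-549-labelled MS2 coat protein, went from 0.7 or 1.5 nM doubling to 3 µM over RNA switches transcribed on Illumina chips by stalled E. coli RNA polymerase. Normalised cluster fluorescence was curve-fitted, and the per-design median over clusters is given as apparent KD.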

[1] = Eterna round: R95, input ligand: FMN 200 uM
[2] = Eterna round: R95, input ligand: microRNA oligo, concentration not stated
[3] = Eterna round: R95, input ligand: none
[4] = input ligand: microRNA oligo, concentration not stated

| Sequence | apparent KD of MS2 coat protein [1] | apparent KD of MS2 coat protein [2] | apparent KD of MS2 coat protein [3] | apparent KD of MS2 coat protein (input ligand: FMN 200 uM) | apparent KD of MS2 coat protein (input ligand: none) | apparent KD of MS2 coat protein [4] |
| --- | --- | --- | --- | --- | --- | --- |
| GAAAACCUAGGAUAUACAUGAGGAUCACCCAUGUGAAAACCUCUUAAAACUUAACAAUGUAGAAGGAGGAAAAC [Azaqure] (puzzle: Exclusion 3) | 0.0399 µM | 0.0432 µM | 0.0383 µM | – | – | – |
| GACAGACGAGCGUGAGCCGACAUGAGGAUCACCCAUGUGCUCGUCUUAUAACGUACUGUCACGUUAGUGAUAGUGCG [Sensor v3, turn-off variant 1 (MOD of Eli's v1-13 v.4)] (puzzle: Sensor v3, turn-off variant 1) | 0.0543 µM | 0.0427 µM | 0.0567 µM | – | – | – |
| CCCUCACAUGAGGAUCACCCAUGUCAGGAUAUCUAGUCAGAUAGUGUAGCACUAAUGAAGAGAAGGGACGUAUA [Lezagees] (puzzle: Exclusion 1) | – | 0.0169 µM | – | – | – | – |
| UCCAGGCGAGGAUAUACAAAGAUUUUUUCGUUUAGUCUCGAACAUGAGGAUCACCCAUGUAGAAGGUGCUUCAC [JR_Ex2_Sub011] (Eterna round: R97, puzzle: Exclusion 2) | – | – | – | 0.0466 µM | 0.0483 µM | – |
| UGCGGGCUUUUGAGACCUCACAUGAGGAUCACCCAUGUGCUUGUCUUGUAAGUGGGUAGGUCGUUGGCUGACUCACA [Sensor-V1 #100] (Eterna round: R97, puzzle: Sensor, turn-off variant 1) | – | – | – | 0.0188 µM | 0.0175 µM | – |
| ACAUUGAUUGUGAGGAUAUCGAUGUGAUGGUAUGUCGAGAAGGCACAUGAGGAUCACCCAUGUGGGUUGUAGCA [JR_BMEx4_Sub035] (Eterna round: R97, puzzle: Brourd's mod of Exclusion 4) | – | – | – | 0.291 µM | 0.0952 µM | – |
| AAACCUGGAGUUAGGAUAUGAAGUAUCACUGCGCUUCAGAAGGGACUUGAGGAUCACCCAAGUAAAAGUUAAAA [Teredi] (Eterna round: R97, puzzle: Brourd's mod of Exclusion 4) | – | – | – | 0.0208 µM | 0.0185 µM | – |
| AAUAACAAGCCGAUCCUCGACAUGAGGAUCACCCAUGUGCUCGUCUUGUAAAGUACUAUCACGAAAGUGAUAGUACA (Eterna round: R97, puzzle: Sensor, turn-off variant 1) | – | – | – | 0.174 µM | 0.419 µM | – |
| GCUAGGCAUGUCAGGAUAUGCUGUACCUUGGUACAGCAGAAGGGACAUGAGGAUCACCCAUGUGCCAACCUAGC [JL-BMX4-4.02] (Eterna round: R97, puzzle: Brourd's mod of Exclusion 4) | – | – | – | 0.736 µM | 0.0559 µM | – |
| AUUUUGUGAGGAUAUGUGGCUUCGAUCGUAAAAACGAGGCUACAGAAGGCACAUGAGGAUCACCCAUGUUCCUA [salish99_ex4_r4_119] (Eterna round: R97, puzzle: Exclusion 4) | – | – | – | 0.194 µM | 0.024 µM | – |
| CGUGACUCAGGAUAUGUAUAAUAUCACAUGAGGAUCACCCAUGUCCAGCGAAAGCUGGAGGCAGAAGGGAGUCACG [Fiskers Ex 5 - 38] (puzzle: Exclusion 5) | 0.0431 µM | 0.0588 µM | 0.0319 µM | – | – | – |
| GAAAACGCAGAGGAUAUUUCAGAUCAAAGCUGCAAAGAAGGCUGCACAUGAGGAUCACCCAUGUGGUCUUUAAA [Mod of Quesina - Jieux - Exclusion 6] (Eterna round: R97, puzzle: Exclusion 6) | – | – | – | 0.286 µM | 0.0207 µM | – |
| UAAAACGGAGGAUAUACUGACCCUCAAAACAGACGCGCUGGACAUGAGGAUCACCCAUGUAGAAGGCCGAAUGC [Titeustele] (puzzle: Exclusion 2) | – | 0.0217 µM | – | – | – | – |
| UAUUUACAUGAGGAUCACCCAUGUUAGGAUAUGUUUCUAUCGUCGAAAGAUGAUAUUUGCAGAAGGGACAAUAU [LRO-Excl01-28 mod derived from EliFisker 4.24] (Eterna round: R97, puzzle: Exclusion 1) | – | – | – | 0.024 µM | 0.0243 µM | – |
| CAAUAUUACUGAGGAUAUCCUAUUGUAUUUCAGGGAGAAGGCAGACUCAACAUGAGGAUCACCCAUGUAAGACGGGUACUAGAU [Ex NG1 #18] (Eterna round: R96, puzzle: Exclusion NG 1) | – | – | – | 0.097 µM | 0.0982 µM | 0.0774 µM |
| UGCGUACAUGAGGAUCACCCAUGUGAGGAUAUUUGGCAUCGCGAGUGCCCAAGGAGAUAGAGAAGGCAUAUGGA [Eternabot (L1) Solution 50] (Eterna round: R97, puzzle: Exclusion 1) | – | – | – | 0.0343 µM | 0.0372 µM | – |
| CUGGUCCGAGGAUAUAUUAAGUGAUACAUGAGGAUCACCCAUGUAAUUUAAUGGAAAUAAAUAGAAGGCGGACUAG [Mat - Exclusion 5 - JL mod - D51] (puzzle: Exclusion 5) | 0.03 µM | 0.0653 µM | 0.0625 µM | – | – | – |

| Sequence | apparent KD of MS2 coat protein [1] | apparent KD of MS2 coat protein [2] | apparent KD of MS2 coat protein [3] | apparent KD of MS2 coat protein (input ligand: FMN 200 uM) | apparent KD of MS2 coat protein (input ligand: none) | apparent KD of MS2 coat protein [4] |
| --- | --- | --- | --- | --- | --- | --- |
| UCUGUUGAAGGAUAUGCGUAACGAGUUACGGCUCAAGGUCUACAUGAGGAUCACCCAUGUAGAAGGUCAUCAGA [EX2 #71] (Eterna round: R97, puzzle: Exclusion 2) | – | – | – | 0.0195 µM | 0.0174 µM | – |
| CAGUACUACAAGCUAUGGGACAUGAGGAUCACCCAUGUUCGUCUUAUUGAUCUAGGUACGCUGACGUACCUAGAUCU [JL-sv1-2.19 Brourd mod] (puzzle: Sensor v3, turn-off variant 1) | 0.0169 µM | 0.0278 µM | 0.0159 µM | – | – | – |
| AAUAACAGAGGAUAUACUAUUUUAUGUGUUUGUUAUUUUGAACAUGAGGAUCACCCAUGUAGAAGGCUGAUUAA [JMF 49] (Eterna round: R96, puzzle: Exclusion 2) | – | – | – | 0.0456 µM | 0.0441 µM | 0.0352 µM |
| AGCGAGGCAGGAUAUACAUGAGGAUCACCCAUGUGCUUGUAUGGCGUGGAACAUCGUAGUAGAAGGGCCGCGCC [EX3 #77] (Eterna round: R97, puzzle: Exclusion 3) | – | – | – | 0.0284 µM | 0.0222 µM | – |
| AACCAUGAGCGAGGAUAUCACCCUACGGAGUGGUGAGAAGGCGCAACAUGAGGAUCACCCAUGUACAAAUGCGGGACCCUUUUC [Zaorredila] (Eterna round: R96, puzzle: Exclusion NG 1) | – | – | – | – | – | 0.0216 µM |
| GCCAGCGUAUAGGAUAUGGCCGGCUUUUGAGUACCAGAAGGAUACACAUGAGGAUCACCCAUGUGGCAUUCGUC [Eternabot (L2) Solution 71] (Eterna round: R97, puzzle: Exclusion 6) | – | – | – | 0.0205 µM | 0.0147 µM | – |
| UUCUAACGAGGAUAUCGAUGGUGGAACAUGAGGAUCACCCAUGUAUGAGAUAUUGUAGUUCGAGAAGGCGUUCAGU [JR_E5_Sub057] (Eterna round: R96, puzzle: Exclusion 5) | – | – | – | 0.0359 µM | 0.0486 µM | 0.0323 µM |
| GAGCUGUGAGGAUAUACAUGAGGAUCACCCAUGUUAAGGAAGUGGUGUAUAUUGUAGUGUAGAAGGCACUUGUG [JR_Ex3_Sub025] (Eterna round: R97, puzzle: Exclusion 3) | – | – | – | 0.6 µM | 0.306 µM | – |
| AGAUCACAUGAGGAUCACCCAUGUCAGGAUAUCUACAUUGAAGCUUCGGCUUCAAUGUAGAGAAGGGAUAAUUA [E1/4-B1] (Eterna round: R97, puzzle: Exclusion 1) | – | – | – | 0.119 µM | 0.0622 µM | – |
| GGCCUUCCACAAGCUUUUUACAUGAGGAUCACCCAUGUGGUUUUUAGUCUUAUCCCGGGCCCGAUGUCGGGCCCGGG [-33.4, -54.7, A 16%] (Eterna round: R97, puzzle: Sensor, turn-off variant 1) | – | – | – | 0.0274 µM | 0.0284 µM | – |
| AUGUUAUUCUGAGGAUAUUGUUUAAUCCUCUCACAUGAGGAUCACCCAUGUUUCCGUGUUUACCGCAAGAAGGCAGUUUUGUUU [JR_ExcNG2_Sub026] (Eterna round: R96, puzzle: Exclusion NG 2) | – | – | – | 0.0636 µM | 0.0618 µM | 0.0487 µM |
| CAUUAUUAUCGAGGAUAUCGUAUUGAGAUACUAUGAGAAGGCGGGAUAAACAUGAGGAUCACCCAUGUGAGCCGGAUGCUUGUG [Ex NG1 #36] (Eterna round: R96, puzzle: Exclusion NG 1) | – | – | – | – | – | 0.0135 µM |
| CUACUACAUGAGGAUCACCCAUGUGAGGAUAUCAGUGGUGCUGCUAGGUAGUCCGGACUGAGAAGGCGCAUAGU [Mod-Malcom] (Eterna round: R97, puzzle: Exclusion 1) | – | – | – | 0.0431 µM | 0.0528 µM | – |
| CUGAGCAGACGGAGAUCCAACAUGAGGAUCACCCAUGUCUCAGAAGCUUUUUGCUCGUCUUAUCCUCCUCUGUUCAC [Elimod 21 - Jieux - Sensor, turn-off variant 1] (Eterna round: R97, puzzle: Sensor, turn-off variant 1) | – | – | – | 0.103 µM | 0.119 µM | – |
| GGUGCGUAUGUGAGGAUAUGCUGGUCCUUGGCUCGGCAGAAGGCACAUGAGGAUCACCCAUGUGGUGUCGUACG [salish99_Bmod_ex4_063] (puzzle: Brourd's mod of Exclusion 4) | 0.249 µM | 0.0365 µM | 0.0544 µM | – | – | – |
| CUCCUCAUGGCGCCUAAACACAUGAGGAUCACCCAUGUAUAGGCUUUUUGCCGUCUUAUAAUAAAACCGAGGAUGCG [Rianza] (puzzle: Sensor v3, turn-off variant 1) | 0.0287 µM | 0.276 µM | 0.0219 µM | – | – | – |
| UAUAUGUCAGGAUAUCGAUUGGAAUGGAAUUUAGUUUUGGUUGAGAAGGGACAUGAGGAUCACCCAUGUUUUUC [EX4 #62] (Eterna round: R97, puzzle: Exclusion 4) | – | – | – | 0.0767 µM | 0.0321 µM | – |
